The source of these data is patent US20050032694A1.

In the experiment the target is rat agrin (the transmembrane isoform Y4, Z8) (rat) (UniProt P25304). Kind of experiment: cell-based or functional assay.
Sequence of UniProt P25304 (P25304 whole entry, canonical isoform): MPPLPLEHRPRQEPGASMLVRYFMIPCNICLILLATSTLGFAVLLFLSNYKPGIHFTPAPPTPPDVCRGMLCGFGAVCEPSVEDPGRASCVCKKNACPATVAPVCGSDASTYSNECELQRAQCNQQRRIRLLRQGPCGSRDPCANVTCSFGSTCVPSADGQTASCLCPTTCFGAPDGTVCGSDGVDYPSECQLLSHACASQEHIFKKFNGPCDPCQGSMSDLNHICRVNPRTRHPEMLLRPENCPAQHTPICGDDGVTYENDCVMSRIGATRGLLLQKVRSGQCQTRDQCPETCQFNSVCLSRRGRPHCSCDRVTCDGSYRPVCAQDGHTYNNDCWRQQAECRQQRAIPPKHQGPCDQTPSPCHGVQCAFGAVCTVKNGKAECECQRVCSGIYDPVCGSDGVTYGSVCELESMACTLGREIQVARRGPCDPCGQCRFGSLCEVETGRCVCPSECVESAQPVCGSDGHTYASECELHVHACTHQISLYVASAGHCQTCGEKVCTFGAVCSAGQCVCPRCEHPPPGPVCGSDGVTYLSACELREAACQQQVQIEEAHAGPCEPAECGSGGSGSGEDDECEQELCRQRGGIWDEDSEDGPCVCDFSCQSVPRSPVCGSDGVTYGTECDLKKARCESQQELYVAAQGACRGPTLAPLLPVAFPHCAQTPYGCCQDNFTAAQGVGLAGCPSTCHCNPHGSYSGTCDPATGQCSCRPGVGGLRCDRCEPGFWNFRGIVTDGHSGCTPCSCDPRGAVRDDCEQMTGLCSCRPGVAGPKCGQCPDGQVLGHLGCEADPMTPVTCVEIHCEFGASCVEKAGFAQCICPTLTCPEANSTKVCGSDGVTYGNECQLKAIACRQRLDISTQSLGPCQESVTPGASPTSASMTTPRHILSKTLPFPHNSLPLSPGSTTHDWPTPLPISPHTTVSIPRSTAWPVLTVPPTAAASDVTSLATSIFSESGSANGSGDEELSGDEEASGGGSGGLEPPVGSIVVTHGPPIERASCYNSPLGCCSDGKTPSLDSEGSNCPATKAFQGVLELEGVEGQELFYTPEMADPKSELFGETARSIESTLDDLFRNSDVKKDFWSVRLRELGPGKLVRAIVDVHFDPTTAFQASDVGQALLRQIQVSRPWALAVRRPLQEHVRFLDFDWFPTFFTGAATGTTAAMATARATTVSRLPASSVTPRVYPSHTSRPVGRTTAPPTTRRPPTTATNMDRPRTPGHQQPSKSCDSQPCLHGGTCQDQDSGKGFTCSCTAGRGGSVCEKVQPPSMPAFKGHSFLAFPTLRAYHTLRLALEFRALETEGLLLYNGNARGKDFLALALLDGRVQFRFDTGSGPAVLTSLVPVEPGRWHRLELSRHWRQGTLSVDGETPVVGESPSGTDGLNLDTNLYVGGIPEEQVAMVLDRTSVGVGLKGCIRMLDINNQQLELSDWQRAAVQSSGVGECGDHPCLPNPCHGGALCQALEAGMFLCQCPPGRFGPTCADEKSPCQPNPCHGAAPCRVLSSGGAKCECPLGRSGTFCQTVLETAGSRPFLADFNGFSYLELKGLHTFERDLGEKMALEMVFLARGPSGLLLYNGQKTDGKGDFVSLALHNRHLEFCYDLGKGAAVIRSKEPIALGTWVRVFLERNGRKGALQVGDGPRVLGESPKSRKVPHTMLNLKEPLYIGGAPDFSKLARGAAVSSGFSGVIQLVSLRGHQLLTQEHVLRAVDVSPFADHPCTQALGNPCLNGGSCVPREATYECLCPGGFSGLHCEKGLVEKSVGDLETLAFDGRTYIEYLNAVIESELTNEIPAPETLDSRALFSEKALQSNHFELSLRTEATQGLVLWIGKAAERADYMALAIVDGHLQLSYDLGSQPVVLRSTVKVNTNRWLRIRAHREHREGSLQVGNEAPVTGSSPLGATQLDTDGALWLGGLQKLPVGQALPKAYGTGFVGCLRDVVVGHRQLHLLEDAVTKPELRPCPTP

In turn, “neurotrypsin of the mouse (compound of the formula II) (from UniProt O08762 22-761) (enzyme)” gave a soluble agrin fragment in culture medium of co-transfected HEK293T cells (Western blot) of 100 kDa.
